Patent US8716557B2

Experiments:
[1] = molecular target: CD30 expressed on L540 cells (Homo sapiens (Human)) (UniProt P28908); test: flow cytometry on CD30-expressing L540 cells, FITC-labeled goat anti-human secondary
[2] = molecular target: CD30 expressed on L540 cells (Homo sapiens (Human)) (UniProt P28908)
[3] = molecular target: FcγRIIIa Phe/Phe^158 on human effector cells (human) (UniProt P08637)

Chain of UniProt P28908 (P28908 19-595 limits assumed): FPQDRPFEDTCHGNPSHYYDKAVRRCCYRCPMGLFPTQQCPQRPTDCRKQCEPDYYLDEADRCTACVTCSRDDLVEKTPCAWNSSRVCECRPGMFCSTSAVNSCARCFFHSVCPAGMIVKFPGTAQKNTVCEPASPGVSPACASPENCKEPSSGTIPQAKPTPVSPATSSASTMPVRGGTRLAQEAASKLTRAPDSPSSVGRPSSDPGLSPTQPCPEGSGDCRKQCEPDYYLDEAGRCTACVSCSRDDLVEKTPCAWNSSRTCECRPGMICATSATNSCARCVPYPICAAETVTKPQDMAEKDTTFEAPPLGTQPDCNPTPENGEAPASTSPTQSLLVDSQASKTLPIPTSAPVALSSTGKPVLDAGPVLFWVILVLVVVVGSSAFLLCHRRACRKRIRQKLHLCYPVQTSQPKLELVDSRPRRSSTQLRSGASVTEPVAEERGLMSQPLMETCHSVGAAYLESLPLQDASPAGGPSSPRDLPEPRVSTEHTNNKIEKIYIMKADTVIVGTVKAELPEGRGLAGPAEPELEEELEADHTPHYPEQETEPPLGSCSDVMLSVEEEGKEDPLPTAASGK

Substance | EC50 [1] [µg/mL] | ADCC, maximal percent cell lysis (heterozygous FcγRIIIa Phe/Val^158 effector cells) [2] [%] | ADCC, maximal percent cell lysis (homozygous FcγRIIIa Phe/Phe^158 effector cells) [3] [%] | ADCC EC50, times lower than MDX-060 CHO (FcγRIIIa Val/Phe^158 effector cells) [2] [times lower] | ADCC EC50, times lower than MDX-060 LEX (FcγRIIIa Val/Phe^158 effector cells) [2] [times lower] | ADCC EC50, times lower than MDX-060 CHO (FcγRIIIa Phe/Phe^158 effector cells) [3] [times lower]
MDX-060 CHO (antibody) | 0.18 | 31 | 15 |  |  | 
MDX-060 LEX^Opt (antibody) | 0.196 |  |  | 5 | 3 | 3
MDX-060 LEX (antibody) | 0.227 | 31 | 27 |  |  | 
